Measured values taken from patent US20240092930A1 (MABWELL SHANGHAI BIOSCIENCE, published 2024).

Key:
[1] = biological target: T1, human Trop-2 on the surface of cells (CHO/Trop-2 cells; BxPC-3 cells; NCI-N87 cells) (human, UniProt P09758 27-323); test: cell-based or functional assay
T1 sequence (looked up): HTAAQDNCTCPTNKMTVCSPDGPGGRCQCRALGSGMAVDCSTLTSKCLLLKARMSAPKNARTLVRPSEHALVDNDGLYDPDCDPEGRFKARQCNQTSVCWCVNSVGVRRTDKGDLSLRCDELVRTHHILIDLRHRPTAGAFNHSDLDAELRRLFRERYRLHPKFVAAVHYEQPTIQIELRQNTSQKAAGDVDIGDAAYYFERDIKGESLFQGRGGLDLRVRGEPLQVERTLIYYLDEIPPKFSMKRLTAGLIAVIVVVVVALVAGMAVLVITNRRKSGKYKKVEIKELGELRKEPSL

[2] = biological target: T1, human Trop-2 on the surface of cells …; test: cell-based or functional assay; remark: listed apart in the source
[3] = biological target: T1, human Trop-2 on the surface of cells …; test: cell-based or functional assay; remark: listed apart in the source
[4] = biological target: T2, recombinant human Trop-2-his protein (ACCESSION NO.: NP_002344.2, AA 1-274) (human, UniProt P09758 27-274); test: BLI, SN38-labeled antibody on AHC sensor, Trop-2-his 60 nM, 300 s binding
T2 construct: range 27-274; also called recombinant human Trop-2 protein; recombinant human Trop-2 extracellular domain; not shown: his tag
T2 sequence (looked up): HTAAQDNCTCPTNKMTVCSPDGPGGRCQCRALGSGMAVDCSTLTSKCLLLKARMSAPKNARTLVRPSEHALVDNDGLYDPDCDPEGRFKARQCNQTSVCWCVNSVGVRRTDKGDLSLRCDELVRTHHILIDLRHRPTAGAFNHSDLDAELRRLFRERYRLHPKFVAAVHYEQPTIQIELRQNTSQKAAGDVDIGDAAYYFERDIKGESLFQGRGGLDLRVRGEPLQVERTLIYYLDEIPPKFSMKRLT
Description: (§1) Affinities of the antibodies were determined by an assay including capturing Fc fragments of the antibodies with anti-human IgG Fc capture (AHC) biosensors using Octet QKe system instrument from Fortebio.
For the assay, SN38-labeled antibodies prepared as described above: h23-12-SN38, ch4-3-SN38, ch11-4-SN38, and positive control antibody Sacituzumab-SN38, as well as naked antibodies h23-12, ch4-3, ch11-4, and positive control antibody Sacituzumab were diluted to 4 μg/ml with PBS and allowed to flow through the surface of an AHC biosensor (Cat.: 18-0015, PALL) for 120 s. Recombinant human Trop-2-his protein (ACCESSION NO.: NP_002344.2, AA 1-274) was used as a mobile phase, and its concentration was 60 nM. The binding time was 300 s and the dissociation time was 300 s. When the assay was finished, data from which the response value of blank control had been deducted were fitted to a 1:1 Langmuir binding model using software, and then kinetic constants for antigen-antibody binding were calculated.

[5] = biological target: T3, recombinant mouse Trop-2-his protein (Cat.: 50922-M08H, Beijing Yiqiao Shenzhou Science and Technology Co., … (mouse, UniProt Q8BGV3 25-270)); test: ELISA, coated mouse Trop-2-his 1 µg/ml
T3 construct: Bought protein; not shown: his tag
T3 sequence (looked up): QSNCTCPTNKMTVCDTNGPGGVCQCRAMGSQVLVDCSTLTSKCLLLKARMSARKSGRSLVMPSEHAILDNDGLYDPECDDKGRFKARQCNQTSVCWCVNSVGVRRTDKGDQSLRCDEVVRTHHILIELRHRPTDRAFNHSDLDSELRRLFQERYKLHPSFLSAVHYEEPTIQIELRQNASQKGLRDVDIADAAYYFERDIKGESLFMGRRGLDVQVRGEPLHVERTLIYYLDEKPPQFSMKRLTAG
Description: (§2) Washed with PBS 3 times, the plates were blocked with the added 5% BSA PBS at 37° C. for 60 min, and then washed 3 times with PBST. Different concentrations of h23-12 (serial dilutions of 14 concentrations obtained through 3-fold serially diluting a solution with an initial concentration of 10 μg/ml), h4-3 (serial dilutions of 12 concentrations obtained through 3-fold serially diluting a solution with an initial concentration of 3 μg/ml), and Sacituzumab (serial dilutions of 12 concentrations obtained through 3-fold serially diluting a solution with an initial concentration of 3 μg/ml) were added into the plates, with each concentration provided in a parallel well. The plates were incubated at 37° C. for 60 min, and then were washed 4 times with PBST. 1:5000 dilution of H1RP-anti-human Fc (Cat.: 109-035-098, Jackson ImmunoResearch) was added into the plates for incubation at 37° C. for 30 min. Afterwards, the plates were washed with PBST 4 times, and TMB substrate was added for color development at 37° C. for 10 min. Then 2M HCl was added to stop reaction; and absorbances at 450 nm and at 630 nm (as reference wavelength) were read, and A450 nm-630 nm values of the wells in the plates were recorded.

[6] = biological target: T2, recombinant human Trop-2-his protein …; test: ELISA, coated human Trop-2-his 1 µg/ml
Description: as §2

[7] = biological target: T4, recombinant cynomolgus Trop-2-his protein (ACCESSION NO.: UniProtKB-A0A2K5UE71, AA 1-272) (cynomolgus, UniProt A0A2K5UE71 1-272); test: ELISA, coated cynomolgus Trop-2-his 1 µg/ml
T4 construct: The printed range begins at residue 1; not shown: his tag
T4 sequence: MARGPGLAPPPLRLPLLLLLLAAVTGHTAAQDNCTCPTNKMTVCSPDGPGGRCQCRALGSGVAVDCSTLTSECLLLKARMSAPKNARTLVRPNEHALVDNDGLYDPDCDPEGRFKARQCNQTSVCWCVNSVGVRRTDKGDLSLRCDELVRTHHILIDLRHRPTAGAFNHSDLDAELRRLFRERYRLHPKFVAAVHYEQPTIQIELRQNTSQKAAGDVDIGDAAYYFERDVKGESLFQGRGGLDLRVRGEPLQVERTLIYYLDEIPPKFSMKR
Description: as §2

[8] = biological target: T2, recombinant human Trop-2-his protein …; test: BLI, antibody on AHC sensor, Trop-2-his 60 nM
Outline: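 Humanized antibodies at 4 μg/ml in PBS captured via Fc on anti-human IgG Fc (AHC) biosensors for 120 s; 60 nM Trop-2-his (AA 1-274) as analyte, 100 s association, 300 s dissociation. Blank-subtracted responses fitted to 1:1 Langmuir model for kinetic constants.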

[9] = biological target: T2, recombinant human Trop-2-his protein …; test: BLI, antibody on AHC sensor, Trop-2-his 23, 30, 45, 60 nM
Description: as §1
For the assay, each of the antibodies (h23-12, h4-3, and control antibody Sacituzumab) was diluted to 4 μg/ml in PBS, and was allowed to flow through the surface of an AHC biosensor (Cat.: 18-0015, PALL) for 120 s. Recombinant human Trop-2-his protein (ACCESSION NO.: NP_002344.2, AA 1-274) was used as a mobile phase. The Trop-2-his protein was used in following concentrations which corresponded to different antibodies: in case of h23-12, the Trop-2 was used in concentrations of 23, 30, 45, and 75 nM; in case of h4-3, it was used in concentrations of 23, 30, 45, and 60 nM; and in case of Sacituzumab, it was used in concentrations of 23, 30, 45, and 75 nM. The binding time was 100 s and the dissociation time was 300 s. When the assay was finished, data from which the response values of blank control had been deducted were fitted to a 1:1 Langmuir binding model using software, and then kinetic constants for antigen-antibody binding were calculated.

[10] = biological target: T3, recombinant mouse Trop-2-his protein …; test: ELISA, coated mouse Trop-2-his, purified murine antibody
Description: Washed with PBS 3 times, the plates were blocked with the added 5% BSA PBS at 37° C. for 60 min, and then washed 3 times with PBST. The 15 purified murine antibodies were diluted to 1 μg/ml with PBS. Controls as follows were set: (1) Positive Control (PC): Sacituzumab (WHO Drug Information (Vol. 31, No. 1, 2017), SEQ ID NO: 39 and SEQ ID NO: 40), a version having murine IgG constant region, […]; (2) Negative Control (NC): an antibody from an irrelevant hybridoma, 1 μg/ml; (3) blank control: PBS. After incubation at 37° C. for 60 min, the plates were washed 4 times with PBST. […] Afterwards, the plates were washed with PBST 4 times, and TMB substrate was added for color development at 37° C. for 10 min. Then 2M HCl was added to stop reaction; and absorbances at 450 nm and at 630 nm (as reference wavelength) were read, and A450 nm-630 nm values of the wells in the plates were recorded.

B1: ch4-3-SN38 (antibody, V domains shown)
VH: QVQLQQSGPELVKPGASVKMSCKASGFTFTDYVIGWVKQRTGQGLEWIGEIYLGSGTIYYTEKFKGKATLTADTSSNTAYMQLSSLTSEDSAVYFCARGSIFPFDYWGQGTTLTVSS
VL: QIVLTQSPAIMSASPGEKVTMTCSASSSVSYMYWYQQKPGSSPRLLIYDTSTLASGVPVRFSGSGSGTSYSLTISRMEAEDAATYYCQQWSSYPYTFGGGTKLEIK
modifications: CL2A-SN-38 conjugated to the DTT-reduced antibody; 7.5 SN38 per antibody; sites not stated
notes: also called ch4-3 labeled with SN38
- Internalization percentage, 1 h, NCI-N87 cells, FACS [1]: 64.6%
- Internalization percentage, 1 h, BXPC-3 cells, FACS [2]: 57.7%
- IC50 (µg/ml), inhibitory activity of anti-Trop-2 ADCs on cell growth, BxPC-3 cells [3]: 3.3 µg/mL
- Kd [4]: 0.177 nM

B2: Sacituzumab-SN38 (antibody, human IgG1, kappa, V domains shown)
VH: QVQLQQSGSELKKPGASVKVSCKASGYTFTNYGMNWVKQAPGQGLKWMGWINTYTGEPTYTDDFKGRFAFSLDTSVSTAYLQISSLKADDTAVYFCARGGFGSSYWYFDVWGQGSLVTVSS
VL: DIQLTQSPSSLSASVGDRVSITCKASQDVSIAVAWYQQKPGKAPKLLIYSASYRYTGVPDRFSGSGSGTDFTLTISSLQPEDFAVYYCQQHYITPLTFGAGTKVEIKR
modifications: CL2A-SN-38 conjugated to the DTT-reduced antibody; 7.5 SN38 per antibody; sites not stated
notes: also called Sacituzumab labeled with SN38
- Internalization percentage, 1 h, NCI-N87 cells, FACS [1]: 47.5%
- Internalization percentage, 1 h, BXPC-3 cells, FACS [2]: 32.7%
- IC50 (µg/ml), inhibitory activity of anti-Trop-2 ADCs on cell growth, BxPC-3 cells [3]: 4.31 µg/mL
- Kd [4]: 0.431 nM

B3: h4-3-1 (antibody, human IgG1, kappa, V domains shown)
VH: EVQLVQSGPEVKKPGASVKVSCKASGFTFTDYVIGWVRQAPGQGLEWIGEIYLGSGTIYYTEKFKGRVTMTADTSTSTAYMELSSLRSEDTAVYYCARGSIFPFDYWGQGTLVTVSS
VL: DIQLTQSPSSLSASVGDRVTITCSASSSVSYMYWYQQKPGKAPKLLIYDTSTLASGVPSRFSGSGSGTDFTLTISSLQPEDFATYYCQQWSSYPYTFGQGTKLEIKR
notes: also called CDR grafted antibody 4-3
- binding result [5]: no binding (tested: up to 3 µg/ml)
- EC50 [6]: 0.0469 nM
- EC50 [7]: 0.0461 nM
- Kd [8]: 0.304 nM
- Kd [9]: 0.545 nM
- koff [9]: 0.000146 s⁻¹
- kon [9]: 267000 M⁻¹ s⁻¹

B4: m23-12 (antibody, mouse IgG1, V domains shown)
VH: QVQLQQPGAELVKPGASVKLSCKADGYIFTSYWMHWVKQRPGQGLEWIGEITPSDNYTSYNQKFKGKATLTVDKSSSTAYMQLSSLTSEDSAVYYCTRGHGNYVSFDYWGQGTTLTVSS
VL: DIQMTQITSSLSASLGDRVTITCRASQDISNYLNWYQQKPDGTVKLLIYYTSRLHSGVPSRFSGSGSGTDYSLTISNLEQEDIATYFCQQGYTLPPYTFGGGTKLEIK
notes: also called murine antibody 23-12
- binding result [10]: no binding (tested: 1 µg/ml)

B5: m3-11 (antibody, mouse IgG1, V domains shown)
VH: QVQLQQPGAELVKPGSSVKLSCKASGYTFTSYWMYWVKQRPGQGLEWIGEINPSNGRTNYNEKFKSKATLTVDKSSSTAYMQFSSLTSEDSAVYYCTREGHNYDGSLGAMDHWGQGTSVTVSS
VL: DVVVTQTPLSLPVSFGDQVSISCRSSQSLTNSYGNTFLSWYLHKPGQSPQLLLYGISNRFSGVPDRFSGSGSGTDFTLKINTIKPEDLGMYYCFQSTHQPYTFGGGTKLEIK
notes: also called murine antibody 3-11
- binding result [10]: no binding (tested: 1 µg/ml)

B6: m4-3 (antibody, mouse IgG1, V domains shown)
VH: QVQLQQSGPELVKPGASVKMSCKASGFTFTDYVIGWVKQRTGQGLEWIGEIYLGSGTIYYTEKFKGKATLTADTSSNTAYMQLSSLTSEDSAVYFCARGSIFPFDYWGQGTTLTVSS
VL: QIVLTQSPAIMSASPGEKVTMTCSASSSVSYMYWYQQKPGSSPRLLIYDTSTLASGVPVRFSGSGSGTSYSLTISRMEAEDAATYYCQQWSSYPYTFGGGTKLEIK
notes: also called murine antibody 4-3
- binding result [10]: no binding (tested: 1 µg/ml)

B7: m11-4 (antibody, mouse IgG1, V domains shown)
VH: QVQLQQPGAELVRPGASVNLSCKASGYTFTSYWINWVKQRPGQGLEWIGNIYPSNSYTNYNQKFKDTATLTVDKSSSTAYMQLSSPTSEDSAVYFCSSYRSDGFAYWGQGTLVTVSA
VL: DILLTQSPAILSVSPGEKVSFSCRASQNIGTSIHWYQQRTNGSPRLLIEFASESISGIPSRFSGSGSGTDFTLTINSVESEDIADYYCQQSNSWPFTFGGGTKLEIK
notes: also called murine antibody 11-4; ml 1-4
- binding result [10]: no binding (tested: 1 µg/ml)
